Laboratory results taken from patent publication US7666835B2 (Imperial Innovations Limited, priority 2001, dated 2010).

Columns and labels:
[1] = iPVN injection, food intake in 24-h fasted rats (studies 1b, 2b); type: in vivo, rat; conditions: study 1b; iPVN; OXM, GLP-1 (3 nmol [sic]), exendin-4 0.03 nmol, glicentin, glucagon 1 nmol, SP-1 3 nmol; fasted rats
Experimental: (§1) Animals had permanent stainless steel guide cannulas (Plastics One, Roanoke, Va.) stereotactically implanted ICV or iPVN.
Therefore, exendin-4 was injected iPVN at a dose of 0.03 nmol.

[2] = ICV injection, food intake in 24-h fasted rats (studies 1a, 2a); type: in vivo, rat; conditions: study 1a; 3 nmol ICV; 24-h fasted rats; vs saline
Text: as §1

B1: glicentin (peptide, UniProt P01275 21-89, looked up)
Glicentin: RSLQDTEEKSRSFSASQADPLSDPDQMNEDKRHSQGTFTSDYSKYLDSRRAQDFVQWLMNTKRNRNNIA
modifications: Glicentin
notes: proglucagon-derived peptide purchased from Peninsula Laboratories
- refeeding (food intake) after iPVN injection [1]: failed to affect food intake at any time point
- refeeding (food intake) after ICV injection [2]: failed to affect food intake at any time point
